# Results taken from patent US20080234471A1.
# Assays:
# GnGn-peptide [1] = biological target: GnGn-peptide
# GnGn-peptide [2] = biological target: GnGn-peptide; remark: listed apart in the source
Substance,Km-Value (GnGn-peptide [1]) [µM],Km-Value (GnGnF^6-peptide) [µM],Rel. Activity (MM-peptide) [%],Specific activity (GnGn-peptide [2]) [mU/mg]
"recombinant GlcNAc-α1,3-fucosyl transferase (enzyme)",190,130,0,
"GlcNAc-α1,3-fucosyl transferase isolated from mung bean seedlings (enzyme)",,,,43400
